# Experiment: yeast display, Sf9 membrane polyspecificity reagent, FACS + sequencing; frameworks hold sequencing errors
# Procedure, shortened: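 A synthetic nanobody library was expressed on Saccharomyces cerevisiae BJ5465 by galactose induction for 36–48 hours. The library was stained for 1 hour at 4 °C with 10% biotinylated, detergent-solubilized Sf9 membrane reagent and enriched with streptavidin microbeads before FACS. Low and high (top ~1%) gates were set on anti-HA fluorescence for expression and streptavidin fluorescence for reagent binding, and each polyreactivity label reflects the gate of origin.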
row,Sequence,polyreactivity (PSR sort gate)
1,QVQLVESGGGLVQAGGSLRLSCAASGLIFSQNAMGWYRQAPGKERELVARITWSGTSTYYADSVKGRFTISRDNAKNTVYLQMNSLKPEDTAVYYCAADRPRGRETVDYWGQGTQVTVSS,high polyreactivity
2,QVQLVESGGGLVQAGGSLRLSCAASGLIFSRNAMGWYRQAPGKERELVAAISGGGGSTYYADSVKGRFTISRDNAKNTVYLQMNSLKPEDTAVYYCAAKGYWWRTPWIATYDYWGQGTQVTVSS,high polyreactivity
3,QVQLVESGGGLVQAGGSLRLSCAASGLIFSRYTMGWYRQPPGKERELVAAISSDGSTYYADSVKGRFTISRDNAKNTVYLQMNSLKPEDTAVYYCAARYWVGGRDRYDSWGQGTQVTVSS,high polyreactivity
4,QVQLVESGGGLVQAGGSLRLSCAASGLIFSRYVMGWYRQAPGKERELVAAISRSGGSTYYADSVKGRFTISRDIAKNTVYLQMNSLKPEDTAVYYCNAGRRTGRYGYWGQGTQVTVSS,high polyreactivity
5,QVQLVESGGGLVQAGGSLRLSCAASGLIFSTNDMGWYRQAPGKERELVAAITSDVSTYYADSVKGRFTISRDNAKNTVYLQMNSLEPEDTAVYYCAKDDSGYINWRYDYWGQGTQVTVSS,low polyreactivity
6,QVQLVESGGGLVQAGGSLRLSCAASGLIFSTYYMGWYRQAPRKERELVAAISTGGSTYCADSVKGRFTISRDNAKNTVYLQMNSLKPEDTAVYYCAAGYTYHSWPLYYWDYNYWGQGTQVTVSS,low polyreactivity
7,QVQLVESGGGLVQAGGSLRLSCAASGLIFSYNDMGWYRQAPGKERELVASISNGGSTNYADSVKGRFTISRDNAKNTVYLQMNSLKPEDTAVYYCAAEGALGEVYWWNVRRYYWGQGTQVTVSS,low polyreactivity
8,QVQLVESGGGLVQAGGSLRLSCAASGLIFTAYAMGWYRQAPGKERELVAAIDWRGGSTSYADSVKGRFTISRDNAKNTVYLQMNSLKPEDTAVYYCAADYYSKYVRFGYWGQGTQVTVSS,high polyreactivity
9,QVQLVESGGGLVQAGGSLRLSCAASGLIFTDNTRGWYRQAPGKEREFVADISSSGGITYYADSVKGRFTFSRDNAKNTVYLQMNSLKPEDTAVYYCNAERGYDYLDGYPFFIYDYWGQGTQVTVSS,low polyreactivity
10,QVQLVESGGGLVQAGGSLRLSCAASGLIFTTNAMGWYRQAPGKERELVAAISTSTGRTYYADSVKGRFTISRDTAKNTVYFQMNSLKPEDTAVYYCAADGFLSYYGFWRYEYWGQGTQVTVSS,high polyreactivity
11,QVQLVESGGGLVQAGGSLRLSCAASGLIFTYYAMGWYRQAPGKERELVAAIRVNGGSTYYADSVKGRFTISRDNAKNTVYFQMNSLKPEDTAVFYCAADYYRLRAASYLIRLNYWGQGTQVTVSS,high polyreactivity
12,QVQLVESGGGLVQAGGSLRLSCAASGLIFTYYAMGWYRQAPGKERELVAAITSGGRTNYADSVKGRFTISRDNAKNTVYLQMNSLKPEDTAVYYCAATSSWRANYRTWVYRYDYWGQGTQVTVSS,high polyreactivity
13,QVQLVESGGGLVQAGGSLRLSCAASGLIFTYYDIGWYRQEPGKERELVASISWDGGRTYYADSVKGRFTIARDNAKKTVYLQMNSLKPEDTAVYYCAKRLGGSPIQARGDFWGQGTQVTVSS,low polyreactivity
14,QVQLVESGGGLVQAGGSLRLSCAASGLIFVGYAMGWYRQAPGKERELVAAITSGGSTYYADSVKGRFTISRDNAKNTVYLQMNSLKPEDTAVYYCAAQQGISNGTGVSATNPMDYWGHGTQVTVSS,low polyreactivity
15,QVQLVESGGGLVQAGGSLRLSCAASGLIFVNAMGWYRQAPGKEREFVAAITYSTGSTYYADSVKGRFTISRDNAKNTVYLQMNSLKPEDTAVYYCAKDRSGHGTERDYWGQGTQVTVSS,low polyreactivity
16,QVQLVESGGGLVQAGGSLRLSCAASGLIFVQYVMGWYRQAPGKERELVAAITDDGNTYYADSVKGRFTISRDNAKNTVYLQMKSLKPEDTAVYYCNAVLRSYDFWPGYGYWGQGTQVTVSS,low polyreactivity
17,QVQLVESGGGLVQAGGSLRLSCAASGLIFVWYAMGWYRQAPGKERELVAAITRSGGSTYYADSVKGRFTISRDNAKNTVYLQMNSLKPEDTAVYYCAARWKFPSSFYYWGQGTQVTVSS,high polyreactivity
18,QVQLVESGGGLVQAGGSLRLSCAASGLIFVYNAMGWYRQAPGKEREFVAGITSGGSTNYADSVKGRFTISRDNAKNPVYLQMNSLKPEDTAVYDCAAGYYDLYLWWGYDYWGQGTQLTVSS,high polyreactivity
19,QVQLVESGGGLVQAGGSLRLSCAASGLIFWLNAMGWYRQAPGKDCELVAAISRGGSTNYADSVKGRFTISRDNAKNTVYFQMNSLKPEDSAVYYCAAGSRRAAWYDYSYPYGYWGQGTQVTVSS,high polyreactivity
20,QVQLVESGGGLVQAGGSLRLSCAASGLIFWYYAMGRYRQAPGKERELVASISSGGDTTYADSVKGRFTISRDNAKNTVYLQMNSLKPEDTAVYYGAAERYVRVWVAGILHYDYWGQGTQVTVSS,low polyreactivity
21,QVQLVESGGGLVQAGGSLRLSCAASGLIFYANVMGWYRQAPGKERELVAAISRSGTSTYYADSVKGRFTISRDNAKNTVYFQMNSLKPEDTAVYYCAADFVKRQANRQFDYWGQGTQVTVSS,high polyreactivity
22,QVQLVESGGGLVQAGGSLRLSCAASGLIFYDNLGWYRQAPGKDRELVAAISSSGGSTSYADSVKGRFTISRDNAKNTVYLPMNSLKPEDTAVYYCAAKWSHVRDGPKYDYWGQGTQVTVSS,low polyreactivity

row,Sequence,polyreactivity (PSR sort gate)
1,QVQLVESGGGLVQAGGSLRLSCAASGLIFYDNMGWYRQAPGKERELVAAISSSGGSTNYADSVKGRFTISRDNAKNTVYLQMNSLKPEDTAVYYCAADSYPAYLGFVGFDYWGQGTQVTVSS,low polyreactivity
2,QVQLVESGGGLVQAGGSLRLSCAASGLIFYDNMGWYRQPPGKERELVAAITVSGGSTYYADSVKGRFTISRDNAKNTVYLQMKSLKPEDTAVYYCARELLSPTYQRWYYYWGQGTQVTVSS,low polyreactivity
3,QVQLVESGGGLVQAGGSLRLSCAASGLIFYFYAMGWYRQAPGKERELVAGITNVGSTNYADSVKGRFTISRDNAKNTVYLQMNSLKPEDTAVYYCAAQYYTVRSTYDYWGQGTQVTVSS,high polyreactivity
4,QVQLVESGGGLVQAGGSLRLSCAASGLIFYGNAMGWYRQAPGKERELVAAISWSGGNTSYADSVKGRFTISRDNAKNTVYLQMNSLKPEDTAVYYCAVDNTGRSWPYDYWGQGTQVTVSS,low polyreactivity
5,QVQLVESGGGLVQAGGSLRLSCAASGLIFYKNAMGSYRQAPGKEREFVAAISRSGASTYYSDSVMGRFTISRDYAKNTVYLQMKSLKPEVTEVYLCAARAGANYRMDYWGQGTQVTVSS,high polyreactivity
6,QVQLVESGGGLVQAGGSLRLSCAASGLIFYRNAMGWYRQAPGKERELVAAIRFSTGSTYYADSVKGRFTISRDNAKNTVYLEMNSLKPEDTAVYYCAAALPGYGDYYYWGQGTQVTVSS,high polyreactivity
7,QVQLVESGGGLVQAGGSLRLSCAASGLIFYRYAMGWYRQAPGKERELVAAISRRGGSTYYADSVKGRFTISRDNAKNTVYLQMNRLKAEETAVYYCAARLPGYYGIGDYWGQGTQVTVSS,high polyreactivity
8,QVQLVESGGGLVQAGGSLRLSCAASGLIFYRYAMGWYRQAPGKERELVADISWSGGTTYYADSVKGRFTISRDNAKNTVYLQMNSLKPEDTAVYYCAARSVPSPERGFYYWGQGTQVTVSS,high polyreactivity
9,QVQLVESGGGLVQAGGSLRLSCAASGLIFYRYTMGWNRQAPGKERELVAGITSGGRTYYADSVKGRFTISRDNAKNTFYLQMNSLKPEDTAVYYCAARYFPARTRYYYWGQGTQVTVSS,high polyreactivity
10,QVQLVESGGGLVQAGGSLRLSCAASGLIFYSYAMGWYRQAPGKERELVAAINGGGGSTYYADSVKGRFTISRDNAKNTVYFQMNSLKPEDTAVSYCAAPYYRLTGWSRYDYWGQGTQVTVSS,high polyreactivity
11,QVQLVESGGGLVQAGGSLRLSCAASGLIFYWNTMGWYRQAPGKERELVAYISGGGGRTYYADSVKGRFTISRDNAKNTVYLQMNSLKPEDTAVYYCAAKLYGYRSGYYYWGQGTQVTVSS,high polyreactivity
12,QVQLVESGGGLVQAGGSLRLSCAASGLIFYYYAMGWYRQAPGKERELVAAITRGGRTYYADSVKGRFTISRDNAKNTVYLQMNSLKPEDTAVYYCAAGWYQGFDYWGQGTQVTVSS,high polyreactivity
13,QVQLVESGGGLVQAGGSLRLSCAASGLIFYYYAMGWYRQAPGQERELVAAITSDDRTYYADSVKGRFTISRDNAKNTVYLQMNSLKPEDTAVYYCAARYHGYLPQYRKYGYGYWGQGTQVTVSS,high polyreactivity
14,QVQLVESGGGLVQAGGSLRLSCAASGLIFYYYTMGWYRQAPGKERELVARITSSGGRTYYADSVKGRFTISRDNAKNTVYLQMNSLKPEDTAVYYCNARVPRYNGGSTMEYWGQGTQVTVSS,high polyreactivity
15,QVQLVESGGGLVQAGGSLRLSCAASGLIIASYAMGWYRQAPGKERELVAAINTGGSTYYADSVKGRFTISRDNAKNTVYLQMNSLKPEDTAVYYCAARYTGLSYSRYGYWGQGTQVTVSS,high polyreactivity
16,QVQLVESGGGLVQAGGSLRLSCAASGLIIPAYAMGWYRQAPGKEREMVATITWRGGSTYYADSVKGRFTISRDNAKNTVYLQMNSLKPEDTAVDYCATRPRYYYFRYDYWGQGSQVTVSS,high polyreactivity
17,QVQLVESGGGLVQAGGSLRLSCAASGLIIWLYTLGWYRQAPGKESELVAAIDWSGGSTYYADSVKGRFTISRDNAKNTVYLQMNSLKPEDTAVYYCAADPEPSYRFDYWGQGTQVTVSS,low polyreactivity
18,QVQLVESGGGLVQAGGSLRLSCAASGLIIYYNAMGWYRQAPGKERELVAAITSGGSTYYADSVKGRFTISRDNAKNTVYLQMNSLKPEDTAVYYCAAVPASYRYPMYYWGQGTQVTVSS,low polyreactivity
19,QVQLVESGGGLVQAGGSLRLSCAASGLILDGYAMGWYRQAPGKERELVAAITRSGGRTYYADSVKGRFTISRDNAKNTVYLQMNSLKPEDTAVYYCAALGWSGRYRYDYWGQGTQVTVSS,high polyreactivity
20,QVQLVESGGGLVQAGGSLRLSCAASGLILDYNDMGWYRQAPGKERELVASITGGGSTYYADSVKGRFTISRDNAKNTVYLQMNSLKPEDTAVYYCNADPVGVYGFDLDYWGQGTQVTVSS,low polyreactivity
21,QVQLVESGGGLVQAGGSLRLSCAASGLILGSYAMGWYRQAPGKERELVAGISWSGGDTYYADSVKGRFTISRDNAKNTVYLQMNSLKPEDTAVYYCNTGGTFLDWVRRPFGFGYWGQGTQVTVSS,low polyreactivity

# From the nanobody polyreactivity screen of Harvey et al. (2022)
